Here are results for three molecules from US20240239878A1 (SHANGHAI QILU PHARMACEUTICAL RESEARCH AND DEVELOPMENT CENTRE, published 2024).

Like-named read-outs stand apart in the source and are kept apart here.

For assay [1], the target named is T1, human DLL3 on SHP-77 cells (human, UniProt Q9NYJ7 27-618).
T1 construct: also called DLL3-expressing cells (SHP-77)
T1 sequence: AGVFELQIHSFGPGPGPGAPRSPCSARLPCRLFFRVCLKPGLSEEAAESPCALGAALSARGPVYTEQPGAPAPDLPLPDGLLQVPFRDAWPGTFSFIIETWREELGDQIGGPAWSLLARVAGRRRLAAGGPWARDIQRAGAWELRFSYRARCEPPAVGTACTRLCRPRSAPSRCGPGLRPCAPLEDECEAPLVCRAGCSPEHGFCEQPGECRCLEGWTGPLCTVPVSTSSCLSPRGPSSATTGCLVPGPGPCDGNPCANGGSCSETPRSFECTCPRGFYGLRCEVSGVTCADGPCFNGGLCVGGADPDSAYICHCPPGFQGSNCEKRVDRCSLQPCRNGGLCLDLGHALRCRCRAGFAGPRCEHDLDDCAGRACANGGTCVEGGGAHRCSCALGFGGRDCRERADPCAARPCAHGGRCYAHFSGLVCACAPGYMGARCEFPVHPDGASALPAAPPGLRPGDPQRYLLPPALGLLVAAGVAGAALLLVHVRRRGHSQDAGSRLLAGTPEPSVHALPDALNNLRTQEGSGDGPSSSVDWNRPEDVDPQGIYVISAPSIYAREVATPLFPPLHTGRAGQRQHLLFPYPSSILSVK
In words: flow cytometry, SHP-77 cells. The method, then: (§1) Monoclonal selection was performed, and the expression level of DLL3 protein in the monoclonal cells were identified by flow cytometry. The culture was expanded and stored in storage for later use. SHP-77 and HEK293-cyno DLL3 cells were cultured. The culture medium for SHP-77 cells were RPMI1640+10% FBS, and the culture medium for HEK293 cyno DLL3 cells were DMEM+10% FBS+200 μg/ml Hygromycin. The cells were cultured in a T75 cell culture flask at a 37° ° C. in a 5% CO₂ incubator. When using cells, they are washed with sterile DPBS, digested with 0.25% trypsin EDTA for about 5 minutes, and then stopped with a complete medium.
(§2) The digested cells were centrifuged at 1000 rpm for 5 min at room temperature. The supernatant was discarded and the cells were resuspended in 100 μL of 1% BSA (in PBS). The cells were counted and adjusted to a cell density of 1E6/m. The dilute cells were seeded in a 96-well round-bottom culture plate (corning 3799), and centrifuged at 1500 rpm for 5 min at 4° C. The supernatant was discarded and the cells were stored at 4° C. until use. Antibody samples to be tested were diluted with 1% BSA (in PBS) at a starting concentration of 100 nM, downwards by a 10-fold gradient for 7 concentrations. The cells were resuspended with the diluted antibody at 100 μL/well and incubated for 1 hour at 4° C. The cells were centrifuged at 1500 rpm for 5 minutes at 4° C. and the supernatant was discarded. The cells were resuspended and washed with 160 μL of 1% BSA (in PBS), centrifuged at 1500 rpm for 5 minutes at 4° C. The supernatant was discarded. The secondary antibody (goat anti human IgG Fc PE) was diluted 1:200 with 1% BSA (in PBS) according to the manufacturer's instructions and the cells were resuspended with the diluted secondary antibody. 100 μL/well, and incubated for 0.5 h at 4° C. The cells were centrifuged at 1500 rpm for 5 minutes at 4° C. and the supernatant was discarded. The cells were resuspended and washed with 160 μL of 1% BSA (in PBS), centrifuged at 1500 rpm for 5 minutes at 4° C. The supernatant was discarded. The cells were resuspended in 100 μL of 1% BSA (in PBS), and filtered across a 300 mesh gauze. The mean fluorescence intensity of the PE channels was measured by flow cytometry.
For orientation: Flow cytometry measures light scatter and fluorescence of single cells or particles in a stream.

The target of assay [2] is T2, Cynomolgus monkey DLL3 on HEK293 cells (HEK293-cyno DLL3) (Cynomolgus monkey, UniProt Q9NYJ7 27-618 (human entry)).
T2 chain: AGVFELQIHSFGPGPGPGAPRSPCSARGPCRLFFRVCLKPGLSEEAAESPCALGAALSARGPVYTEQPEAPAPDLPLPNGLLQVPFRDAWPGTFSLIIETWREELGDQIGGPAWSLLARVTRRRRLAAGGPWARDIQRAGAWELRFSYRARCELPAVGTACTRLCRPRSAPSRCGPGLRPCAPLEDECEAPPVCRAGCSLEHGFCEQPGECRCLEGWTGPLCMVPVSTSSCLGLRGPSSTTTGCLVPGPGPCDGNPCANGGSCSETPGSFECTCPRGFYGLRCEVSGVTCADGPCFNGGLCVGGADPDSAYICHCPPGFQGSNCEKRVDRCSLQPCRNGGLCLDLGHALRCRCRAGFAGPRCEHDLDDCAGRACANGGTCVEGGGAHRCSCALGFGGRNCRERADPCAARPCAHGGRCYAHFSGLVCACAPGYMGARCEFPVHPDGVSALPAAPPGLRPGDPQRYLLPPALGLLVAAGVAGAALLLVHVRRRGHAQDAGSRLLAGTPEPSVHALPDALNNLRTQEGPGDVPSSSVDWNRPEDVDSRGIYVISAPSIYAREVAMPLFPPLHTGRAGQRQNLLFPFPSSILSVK
As to the kind of experiment: flow cytometry, HEK293-cyno DLL3 cells. As for the experimental part: as §1, §2

The target in assay [3] is T1, human DLL3 on SHP-77 cells. In words: flow cytometry, SHP-77 cells. The method, then:
(§3) SHP-77 and HEK293-cyno DLL3 cells were cultured. The culture medium for SHP-77 cells were RPMI1640+10% FBS, and the culture medium for HEK293 cyno DLL3 cells were DMEM+10% FBS+200 μg/ml Hygromycin. The cells were cultured in a T75 cell culture flask at a 37° C. 5% CO₂ incubator. When using cells, they are washed with sterile DPBS, digested with 0.25% trypsin EDTA for about 5 minutes, and then stopped with a complete medium.
as §2, with “antibody,” for “antibody.”
(§4) The analyzed mean fluorescence intensity was imported into Graphpad to analyze the median-binding concentration (hereinafter referred to as EC50) of antibody and cell and the top mean fluorescence intensity (Top MFI).
The source holds these as a separate data set.

Assay [4] addresses T2, Cynomolgus monkey DLL3 on HEK293 cells …. In words: flow cytometry, HEK293-cyno DLL3 cells. As for the experimental part: as §3
as §2, with “antibody,” for “antibody.”
as §4

Assay [5] addresses T1, human DLL3 on SHP-77 cells. In words: flow cytometry, SHP-77 cells. As for the experimental part:
SHP-77 cells were cultured. The culture medium for SHP-77 cells was RPMI1640+10% FBS. The cells were cultured in a T75 cell culture flask at a 37° C. 5% CO₂ incubator. When using cells, they are washed with sterile DPBS, digested with 0.25% trypsin EDTA for about 5 minutes, and then stopped with a complete medium.
as §2, with “plated” for “seeded”, “antibody,” for “antibody.”, “µL/well,” for “μL/well,”
as §4
The source holds these as a separate data set.

Assay [6] deals with T3, human DLL3 antigen protein (Kactus Biosystems, Cat. No. DLL-HM103) (human, UniProt Q9NYJ7 27-492).
T3 sequence: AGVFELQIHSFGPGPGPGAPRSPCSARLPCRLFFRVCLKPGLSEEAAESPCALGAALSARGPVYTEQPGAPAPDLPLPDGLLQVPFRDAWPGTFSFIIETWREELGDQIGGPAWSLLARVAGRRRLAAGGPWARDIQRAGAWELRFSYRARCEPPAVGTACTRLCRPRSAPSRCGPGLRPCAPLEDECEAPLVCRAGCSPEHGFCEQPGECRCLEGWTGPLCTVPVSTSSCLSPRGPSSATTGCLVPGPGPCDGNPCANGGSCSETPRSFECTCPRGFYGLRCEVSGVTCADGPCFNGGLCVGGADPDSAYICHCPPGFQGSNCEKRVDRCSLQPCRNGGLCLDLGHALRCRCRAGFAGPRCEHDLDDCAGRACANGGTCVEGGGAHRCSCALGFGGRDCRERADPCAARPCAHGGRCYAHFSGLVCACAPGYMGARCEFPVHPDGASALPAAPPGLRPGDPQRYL
As to the kind of experiment: SPR (Biacore 8K), antibody captured on anti-human Fc, DLL3 in solution. The method, then:
The affinity and kinetic properties of the humanized anti-DLL3 antibody to human DLL3 were analyzed using a Biacore 8K instrument. CM5 chips were activated with EDC and NHS, followed by immobilization of anti-human Fc murine mAb and blocked with ethanolamine.
Human DLL3 was diluted two-fold serially to serial concentrations (100 nM-0.39 nM) and associated for 90 s and dissociated for 600 s at a flow rate of 50 μL/min.
After completion of each round of the experiment, the captured antibody was removed together with the antigen by washing with a 3M MgCl₂ solution at a flow rate of 30 μL/min for 30 s to complete the regeneration of the chip. The raw data were analyzed using Biacore Insight Evaluation Software (3.0.12.15655) software and fitted with a (1:1) Langmuir model with.
For orientation: Surface plasmon resonance follows binding to a sensor surface in real time, without labels.

B1: DLL3-12 camelid-derived anti-DLL3 chimeric antibody (antibody, human IgG1, V domains shown)
VH: QVQLVESGGGLVQPGESLRLSCAGSGFAFSSYDMHWVRQAPGKDFEWVSSISRDGRGPRYADFVKGRFTISKDNGRNMLYLQLNSLEIEDTAMYYCSKGYPIMGGTTQGTQVTVSS
Turning to B1, the 50% effective concentration (EC50) in assay [1] turned out to be 0.092 nM; in assay [2], 0.073 nM; in assay [3], 0.114 nM; in assay [4], 1.38 nM. Also, the “Top MFI” value in assay [1] turned out to be 886 MFI; in assay [2] it was 220 MFI; in assay [3] it was 935 MFI; in assay [4], 232 MFI.

B2: DLL3-276 camelid-derived anti-DLL3 chimeric antibody (antibody, human IgG1, V domains shown)
VH: QVQLVESGGGSVQAGGSLNLSCATSGSTASTTYMGWFRQAPGKGREGVAIIYTARDNPWYANSVKGRFIISQDNAKKTLYLQMNTLKPEDTATYYCAATLANPTRTAWGQGTLVTVSS
For B2, the EC50 in assay [1] was determined as 0.374 nM; in assay [2] it was 0.897 nM; in assay [3] it was 0.396 nM; in assay [4], 2.08 nM. Besides, the “Top MFI” value amounted to 763 MFI in assay [1], 175 MFI in assay [2], 782 MFI in assay [3] and 179 MFI in assay [4].

B3: H-46A5A4 mouse hybridoma-derived humanized anti-DLL3 antibody (antibody, V domains shown)
VH: QVQLVQSGAEVKKPGASVKVSCKASGYTFTDHTIHWVRQAPGQGLEWMGYIYPRDGYTMYNEKFKGRVTMTRDTSTSTVYMELSSLRSEDTAVYYCARAFHALDYWGQGTLVTVSS
VL: DIQMTQSPSSLSASVGDRVTITCSASQGISNYLNWYQQKPGKAPKLLIYYTSSLHSGVPSRFSGSGSGTDFTFTISSLQPEDIATYYCQQYSKLPYTFGGGTKLEIK
B3: in assay [5], the EC50 was 1.35 nM and the “Top MFI” value came to 1520 MFI. In assay [6], the Kd came to 0.811 nM, the koff was 0.000178 s⁻¹ and the kon came out at 219000 M⁻¹ s⁻¹.

A word on the EC50: it is the concentration giving half of the maximal effect. A word on the Kd: it is the free concentration of one partner at which half of the binding sites on the other are occupied at equilibrium, for simple one-to-one binding. One may read the koff as the first-order rate constant of dissociation. The kon is the second-order rate constant of association.
